{"source": "patent US20260242478A1", "about": "(published 2026)", "binders": {"B1": {"name": "Phage-1489 (peptide, not shown: large carriers)", "peptide": "WCAAGATWPWPLCI", "notes": "Clonal phage of the Peptide-92 optimisation library, tested as crude phage supernatant"}, "B2": {"name": "Phage-1479 (peptide, not shown: large carriers)", "peptide": "WCAAVFSYSWPLCL", "modifications": "cysteine pairing not given here; also: displayed as fusion to phage pIII, pIII and linker not given here", "notes": "as for B1"}, "B3": {"name": "Phage-1475 (peptide, not shown: large carriers)", "peptide": "MCAAGAMYAWPTCL", "modifications": "cysteine pairing not given here; also: fused to phage pIII protein, pIII and linker not given here", "notes": "as for B1"}, "B4": {"name": "Phage-1480 (peptide, not shown: large carriers)", "peptide": "GCAAGFHYPWPLCL", "modifications": "cysteine pairing not given here; also: displayed as fusion to phage pIII, pIII and linker not given here", "notes": "as for B1"}, "B5": {"name": "Phage-1483 (peptide, not shown: large carriers)", "peptide": "QCAAGAMWTWPACF", "notes": "as for B1"}, "B6": {"name": "Phage-1481 (peptide, not shown: large carriers)", "peptide": "LCEEFFHYSWPVCL", "modifications": "cysteine pairing not given here; also: displayed as fusion to phage pIII, pIII and linker not given here", "notes": "as for B1"}, "B7": {"name": "Phage-1487 (peptide, not shown: large carriers)", "peptide": "TCAAGAHYAWPECF", "notes": "as for B1"}, "B8": {"name": "Phage-1476 (peptide, not shown: large carriers)", "peptide": "TCAAGASFPWPWCL", "modifications": "cysteine pairing not given here; also: fused to phage pIII protein, pIII and linker not given here", "notes": "as for B1"}, "B9": {"name": "Phage-1485 (peptide, not shown: large carriers)", "peptide": "TCAAGATYPWPSCL", "notes": "as for B1"}, "B10": {"name": "Phage-1477 (peptide, not shown: large carriers)", "peptide": "SCAAVFPYPWPPCF", "modifications": "cysteine pairing not given here; also: fused to phage pIII protein, pIII and linker not given here", "notes": "as for B1"}, "B11": {"name": "Phage-1486 (peptide, not shown: large carriers)", "peptide": "TCAAGAVWGWPLCF", "notes": "as for B1"}, "B12": {"name": "Phage-1482 (peptide, not shown: large carriers)", "peptide": "TCAAGAAWPWPHCL", "modifications": "cysteine pairing not given here; also: displayed as fusion to phage pIII, pIII and linker not given here", "notes": "as for B1"}, "B13": {"name": "Phage-1478 (peptide, not shown: large carriers)", "peptide": "TCSAGAMYPWPWCV", "modifications": "cysteine pairing not given here; also: fused to phage pIII protein, pIII and linker not given here", "notes": "as for B1"}, "B14": {"name": "Phage-1484 (peptide, not shown: large carriers)", "peptide": "MCSAGATYPWPMCL", "notes": "as for B1"}, "B15": {"name": "Phage-1488 (peptide, not shown: large carriers)", "peptide": "RCRAGFSYNWPYCM", "notes": "as for B1"}}, "key": {"[1]": {"target": "T1, Anti-CD28 Fab (SEQ ID NOs: 696, 697)", "T1 construct": "In the phage ELISA the Fab was biotinylated and captured on neutravidin coated plates", "assay": "phage binding ELISA; Fab-coated wells pre-incubated with CD28 antigen as competitor;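 note: clonal phage supernatants added to wells preincubated with CD28 antigen or blocking buffer only, bound phage detected with HRP-conjugated anti-M13 antibody, buffer-only wells as control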", "T1 sequence (VH, as listed by the source, chain 1 of 2)": "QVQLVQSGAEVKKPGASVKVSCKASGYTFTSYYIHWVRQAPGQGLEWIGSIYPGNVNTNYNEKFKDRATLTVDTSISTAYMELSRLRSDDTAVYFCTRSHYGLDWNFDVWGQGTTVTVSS", "T1 sequence (VL, as listed by the source, chain 2 of 2)": "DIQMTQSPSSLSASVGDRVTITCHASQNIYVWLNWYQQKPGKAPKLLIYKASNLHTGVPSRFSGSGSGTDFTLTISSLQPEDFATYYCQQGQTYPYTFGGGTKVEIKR", "procedure": "(§1) Clonal phage were harvested as crude supematants and screened via standard ELISAs. […] Prior to the addition of clonal phage, wells were incubated with blocking buffer and CD28 antigen or blocking buffer alone. Without washing or aspirating, clonal phage supematants were then added to the wells and incubated for a short time. Wells were then washed followed by detection of bound phage using a horse radish conjugated anti-M13 antibody."}, "[2]": {"target": "T1, Anti-CD28 Fab (SEQ ID NOs: 696, 697)", "assay": "phage binding ELISA; biotinylated anti-CD28 Fab on neutravidin plate, bound phage detected with anti-M13 HRP", "procedure": "as §1"}, "[3]": {"target": "T2, Anti-CD28 Fab (SEQ ID NOs: 696, 697)", "T2 construct": "Biotinylated and captured on neutravidin coated plates in the phage ELISA", "assay": "phage binding ELISA on captured anti-CD28 Fab; competitor: CD28 antigen pre-incubated in the well;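 note: clonal phage supernatants added briefly to wells preblocked with or without CD28, bound phage detected through an HRP-linked anti-M13 antibody, wells with blocking buffer alone as comparison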", "T2 sequence (VH, as listed by the source, chain 1 of 2)": "as the sequence (VH, as listed by the source, chain 1 of 2) above", "T2 sequence (VL, as listed by the source, chain 2 of 2)": "as the sequence (VL, as listed by the source, chain 2 of 2) above", "procedure": "(§2) Clonal phage were harvested as crude supematants and screened via standard ELISAs. […] Prior to the addition of clonal phage, wells were incubated with blocking buffer and CD28 antigen or blocking buffer alone. Without washing or aspirating, clonal phage supematants were then added to the wells and incubated for a short time. Wells were then washed followed by detection of bound phage using a horse radish conjugated anti-M13 antibody. Clonal phage of interest were then sent for sequence analysis."}, "[4]": {"target": "T2, Anti-CD28 Fab (SEQ ID NOs: 696, 697)", "assay": "phage binding ELISA; biotinylated anti-CD28 Fab on neutravidin plate, bound phage detected with anti-M13-HRP;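 note: clonal phage tested as crude supernatants, given a short incubation in the Fab-captured wells before bound phage were read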", "procedure": "as §2"}}, "note": "Where no end group is shown, it is not given here."}
{"binder": "B1", "values": [{"measurement": "Anti-CD28 Fab signal in the presence of CD28", "setting": "[1]", "value": 0.17}, {"measurement": "Anti-CD28 Fab (SEQ ID NOs: 696, 697) signal", "setting": "[2]", "value": 1.7}]}
{"binder": "B2", "values": [{"measurement": "Anti-CD28 Fab signal in the presence of CD28", "setting": "[1]", "value": 0.06}, {"measurement": "Anti-CD28 Fab (SEQ ID NOs: 696, 697) signal", "setting": "[2]", "value": 1.75}]}
{"binder": "TCSAVFSYTWSNCF (tested as crude phage supernatant)", "note": "[Phage-1536]", "values": [{"measurement": "Anti-CD28 Fab signal in the presence of CD28", "setting": "[3]", "value": 0.06}, {"measurement": "Anti-CD28 Fab (SEQ ID NOs: 696, 697) signal", "setting": "[4]", "value": 1.54}]}
{"binder": "SCKAGAPYYWPGCF (tested as crude phage supernatant)", "note": "[Phage-1535]", "values": [{"measurement": "Anti-CD28 Fab signal in the presence of CD28", "setting": "[3]", "value": 0.08}, {"measurement": "Anti-CD28 Fab (SEQ ID NOs: 696, 697) signal", "setting": "[4]", "value": 1.54}]}
{"binder": "B3", "values": [{"measurement": "Anti-CD28 Fab signal in the presence of CD28", "setting": "[1]", "value": 0.09}, {"measurement": "Anti-CD28 Fab (SEQ ID NOs: 696, 697) signal", "setting": "[2]", "value": 1.75}]}
{"binder": "TCSAGATYSWPFCF (tested as crude phage supernatant)", "note": "[Phage-1534]", "values": [{"measurement": "Anti-CD28 Fab signal in the presence of CD28", "setting": "[3]", "value": 0.07}, {"measurement": "Anti-CD28 Fab (SEQ ID NOs: 696, 697) signal", "setting": "[4]", "value": 1.55}]}
{"binder": "TCSAGATYVWPDCF (tested as crude phage supernatant)", "note": "[Phage-1542]", "values": [{"measurement": "Anti-CD28 Fab signal in the presence of CD28", "setting": "[3]", "value": 0.09}, {"measurement": "Anti-CD28 Fab (SEQ ID NOs: 696, 697) signal", "setting": "[4]", "value": 1.52}]}
{"binder": "B4", "values": [{"measurement": "Anti-CD28 Fab signal in the presence of CD28", "setting": "[1]", "value": 0.08}, {"measurement": "Anti-CD28 Fab (SEQ ID NOs: 696, 697) signal", "setting": "[2]", "value": 1.74}]}
{"binder": "B5", "values": [{"measurement": "Anti-CD28 Fab signal in the presence of CD28", "setting": "[1]", "value": 0.07}, {"measurement": "Anti-CD28 Fab (SEQ ID NOs: 696, 697) signal", "setting": "[2]", "value": 1.73}]}
{"binder": "LCAEGFDYSWPMCL (tested as crude phage supernatant)", "note": "[Phage-1533]", "values": [{"measurement": "Anti-CD28 Fab signal in the presence of CD28", "setting": "[3]", "value": 0.08}, {"measurement": "Anti-CD28 Fab (SEQ ID NOs: 696, 697) signal", "setting": "[4]", "value": 1.55}]}
{"binder": "B6", "values": [{"measurement": "Anti-CD28 Fab signal in the presence of CD28", "setting": "[1]", "value": 0.06}, {"measurement": "Anti-CD28 Fab (SEQ ID NOs: 696, 697) signal", "setting": "[2]", "value": 1.74}]}
{"binder": "B7", "values": [{"measurement": "Anti-CD28 Fab signal in the presence of CD28", "setting": "[1]", "value": 0.06}, {"measurement": "Anti-CD28 Fab (SEQ ID NOs: 696, 697) signal", "setting": "[2]", "value": 1.72}]}
{"binder": "B8", "values": [{"measurement": "Anti-CD28 Fab signal in the presence of CD28", "setting": "[1]", "value": 0.06}, {"measurement": "Anti-CD28 Fab (SEQ ID NOs: 696, 697) signal", "setting": "[2]", "value": 1.75}]}
{"binder": "B9", "values": [{"measurement": "Anti-CD28 Fab signal in the presence of CD28", "setting": "[1]", "value": 0.05}, {"measurement": "Anti-CD28 Fab (SEQ ID NOs: 696, 697) signal", "setting": "[2]", "value": 1.73}]}
{"binder": "B10", "values": [{"measurement": "Anti-CD28 Fab signal in the presence of CD28", "setting": "[1]", "value": 0.06}, {"measurement": "Anti-CD28 Fab (SEQ ID NOs: 696, 697) signal", "setting": "[2]", "value": 1.75}]}
{"binder": "TCEAVFIYSWPFCL (tested as crude phage supernatant)", "note": "[Phage-1543]", "values": [{"measurement": "Anti-CD28 Fab signal in the presence of CD28", "setting": "[3]", "value": 0.08}, {"measurement": "Anti-CD28 Fab (SEQ ID NOs: 696, 697) signal", "setting": "[4]", "value": 1.52}]}
{"binder": "TCAAGAAWEWPICF (tested as crude phage supernatant)", "note": "[Phage-1538]", "values": [{"measurement": "Anti-CD28 Fab signal in the presence of CD28", "setting": "[3]", "value": 0.06}, {"measurement": "Anti-CD28 Fab (SEQ ID NOs: 696, 697) signal", "setting": "[4]", "value": 1.54}]}
{"binder": "TCAAGAMWNWPQCY (tested as crude phage supernatant)", "note": "[Phage-1539]", "values": [{"measurement": "Anti-CD28 Fab signal in the presence of CD28", "setting": "[3]", "value": 0.07}, {"measurement": "Anti-CD28 Fab (SEQ ID NOs: 696, 697) signal", "setting": "[4]", "value": 1.54}]}
{"binder": "B11", "values": [{"measurement": "Anti-CD28 Fab signal in the presence of CD28", "setting": "[1]", "value": 0.06}, {"measurement": "Anti-CD28 Fab (SEQ ID NOs: 696, 697) signal", "setting": "[2]", "value": 1.73}]}
{"binder": "SCSAGAAWPWPWCL (tested as crude phage supernatant)", "note": "[Phage-1532]", "values": [{"measurement": "Anti-CD28 Fab signal in the presence of CD28", "setting": "[3]", "value": 0.08}, {"measurement": "Anti-CD28 Fab (SEQ ID NOs: 696, 697) signal", "setting": "[4]", "value": 1.55}]}
{"binder": "B12", "values": [{"measurement": "Anti-CD28 Fab signal in the presence of CD28", "setting": "[1]", "value": 0.06}, {"measurement": "Anti-CD28 Fab (SEQ ID NOs: 696, 697) signal", "setting": "[2]", "value": 1.73}]}
{"binder": "TCAAGASWEWPLCF (tested as crude phage supernatant)", "note": "[Phage-1541]", "values": [{"measurement": "Anti-CD28 Fab signal in the presence of CD28", "setting": "[3]", "value": 0.08}, {"measurement": "Anti-CD28 Fab (SEQ ID NOs: 696, 697) signal", "setting": "[4]", "value": 1.52}]}
{"binder": "B13", "values": [{"measurement": "Anti-CD28 Fab signal in the presence of CD28", "setting": "[1]", "value": 0.08}, {"measurement": "Anti-CD28 Fab (SEQ ID NOs: 696, 697) signal", "setting": "[2]", "value": 1.75}]}
{"binder": "B14", "values": [{"measurement": "Anti-CD28 Fab signal in the presence of CD28", "setting": "[1]", "value": 0.06}, {"measurement": "Anti-CD28 Fab (SEQ ID NOs: 696, 697) signal", "setting": "[2]", "value": 1.73}]}
{"binder": "SCSAGAMYPWPMCL (tested as crude phage supernatant)", "note": "[Phage-1540]", "values": [{"measurement": "Anti-CD28 Fab signal in the presence of CD28", "setting": "[3]", "value": 0.06}, {"measurement": "Anti-CD28 Fab (SEQ ID NOs: 696, 697) signal", "setting": "[4]", "value": 1.53}]}
{"binder": "LCSAGAMWQWPTCL (tested as crude phage supernatant)", "note": "[Phage-1544]", "values": [{"measurement": "Anti-CD28 Fab signal in the presence of CD28", "setting": "[3]", "value": 0.05}, {"measurement": "Anti-CD28 Fab (SEQ ID NOs: 696, 697) signal", "setting": "[4]", "value": 1.51}]}
{"binder": "QCAAGAMWTWPACF (tested as crude phage supernatant)", "note": "[Phage-1537]", "values": [{"measurement": "Anti-CD28 Fab signal in the presence of CD28", "setting": "[3]", "value": 0.06}, {"measurement": "Anti-CD28 Fab (SEQ ID NOs: 696, 697) signal", "setting": "[4]", "value": 1.54}]}
{"binder": "B15", "values": [{"measurement": "Anti-CD28 Fab signal in the presence of CD28", "setting": "[1]", "value": 0.06}, {"measurement": "Anti-CD28 Fab (SEQ ID NOs: 696, 697) signal", "setting": "[2]", "value": 1.72}]}
